Results reported in patent publication US20200079865A1 (Bristol-Myers Squibb, published 2020).

Key:
[1] = target: T1, human GITR, membrane bound (on activated human T cells, 3A9-hGITR cells, huGITR knock-in mouse T cells) (human, UniProt Q9Y5U5 26-241); experiment: FACS on PHA-activated human CD4+ and CD8+ T cells, anti-HA detection
T1 construct: also called TNFRSF18
T1 sequence: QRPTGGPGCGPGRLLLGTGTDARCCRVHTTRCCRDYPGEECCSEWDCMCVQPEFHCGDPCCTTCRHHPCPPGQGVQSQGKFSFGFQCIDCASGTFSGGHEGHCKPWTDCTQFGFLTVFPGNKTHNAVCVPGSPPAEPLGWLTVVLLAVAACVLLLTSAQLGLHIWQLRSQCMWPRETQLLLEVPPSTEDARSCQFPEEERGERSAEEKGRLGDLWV
Excerpt: (§1) The samples were acquired on a FACS Canto Flow Cytometer (BD, San Jose) and analyzed with FlowJo software (Tree Star, Inc, Ashland, Oreg.).

[2] = target: T1, human GITR, membrane bound (on …); experiment: FACS competition on PHA-activated human T cells, pre-bound GITR-L against 0.5 ug/ml 28F3-hIgG1; partial inhibition
Excerpt: as §1

[3] = target: T1, human GITR, membrane bound (on …); experiment: FACS (MFI, PE anti-HA tag) on PHA-activated human T cells, CD4 column; the table's row head reads IC50, the text calls it EC50; unit from the axis
Excerpt: as §1

[4] = target: T1, human GITR, membrane bound (on …); experiment: FACS (MFI, PE anti-HA tag) on PHA-activated human T cells, CD8 column; the table's row head reads IC50, the text calls it EC50; unit from the axis
Excerpt: as §1

[5] = target: T1, human GITR, membrane bound (on …); experiment: FACS competition on activated human CD4+ T cells: pre-bound GITR-L titrated, then 28F3-hIgG1 at a fixed 0.5 ug/mL, detected with PE anti-human IgG Fc; unit from the axis
Excerpt: as §1

B1: recombinant hGITR-L trimer (R&D Systems #6987-GL) (ligand)
chain: LQLETAKEPCMAKFGPLPSKWQMASSEPPCVNKVSDWKLEILQNGLYLIYGQVAPNANYNDVAPFEVRLYKNKDMIQTLTNKSKIQNVGGTYELHVGDTIDLIFNSEHQVLKNNTYWGIILLANPQFIS
notes: Bought soluble trimer, detected through a hemagglutinin (HA) tag; also called GITR Ligand; rhGITR-L
**Q.** For B1, which EC50 [1] is on record?
**A.** 0.016 µg/mL

**Q.** And the IC50 [2]?
**A.** 0.0024 µg/mL

**Q.** And the EC50 [3]?
**A.** 0.016 µg/mL

**Q.** What about the EC50 [4] of the same binder?
**A.** 0.0163 µg/mL

**Q.** What about the IC50 [5] of the same binder?
**A.** 0.00244 µg/mL
